Reference: publication PMC7037036, “C-Terminal Domain of the Human Zinc Transporter hZnT8 Is Structurally Indistinguishable from Its Disease Risk Variant (R325W)” (International Journal of Molecular Sciences, 2020)

Biological target: the molecule itself
Assay: SEC; Superdex 75, protein 10 mg/mL, 20 mM Tris pH 7.5, 150 mM NaCl, native conditions; calibrated with standard proteins; for the WT CTD the profile was similar with 3 mM beta-mercaptoethanol and the tetramer was kept in 8 M urea (some aggregates)

| Protein | stoichiometry N |
| --- | --- |
| C-terminal domain (CTD) of the human zinc transporter 8 (hZnT8), wild type (domain or fragment, UniProt Q8IWU4 281-369, looked up, human zinc transporter 8 (hZnT8, SLC30A8), C-terminal domain, Ser281-Asp369; Expressed as His-MBP-TEV-CTD from a pET28a-based vector; N-terminal tags removed with TEV protease; Measured mass 9.828 kDa; also called WT CTD; hZnT8 CTD; source: E. coli BL21 (DE3), purified (Ni-NTA, TEV cleavage, Hi-Trap Q anion exchange, repeated Ni-NTA, amylose resin); not shown: His tag, N-terminal, cleaved; MBP, …) SLNYSGVKELILAVDGVLSVHSLHIWSLTMNQVILSAHVATAASRDSQVVRREIAKALSKSFTMHSLTIQMESPVDQDPDCLFCEDPCD | 4 |
| C-terminal domain (CTD) of the human zinc transporter 8 (hZnT8), disease risk variant R325W (domain or fragment, UniProt Q8IWU4 281-369, looked up, human zinc transporter 8 (hZnT8, SLC30A8), C-terminal domain, Ser281-Asp369, natural variant R325W (SNP rs13266634); Made from the WT CTD plasmid by QuikChange site-directed mutagenesis; N-terminal tags removed with TEV protease; also called R325W CTD; CTD of the disease risk variant; source: E. coli BL21 (DE3), purified (Ni-NTA, TEV cleavage, Hi-Trap Q anion exchange, repeated Ni-NTA, amylose …)) SLNYSGVKELILAVDGVLSVHSLHIWSLTMNQVILSAHVATAASWDSQVVRREIAKALSKSFTMHSLTIQMESPVDQDPDCLFCEDPCD | 4 |
